The Kd is the constant that tells how readily two partners part at equilibrium. Higher therefore signals weaker binding.

For 1 molecule, Kd results are on record in doi:10.1101/2025.08.01.667725 (bioRxiv, 2025).

For this assay, the target named is T1, FLAG-tagged full-length PU.1, purified (human, UniProt P17947 1-270).
T1 construct: PU.1 transcription factor, full length; also called FLAG-PU.1; purified PU.1; source: 293-ExpiF (Expi293TF) cells, transfected with pCAG, purified (FLAG M2 beads, anion exchange, size exclusion)
Kind of assay: MST; SMARCD2 SWIFT domain and PU.1; Kd model fit. Conditions: both partners purified.

B1: SMARCD2 SWIFT domain, purified from E. coli (domain or fragment, human)
chain: LTQKRKLRIYISNTFSPSKAEGDSAGTAGTPGGTPAGDKVASWELRVEGKLLDDPSKQKRKFSSFFKSLVIELDKELYGPDNHLVEWHRMPTTQETDGFQVKRPGDLNVKCTLLLMLDHQPPQYQHPDPIVINHVISVDPNDQKKTACYDIDVEVD
notes: SMARCD2, human, stretch of the SWIFT domain before the SWIB domain; the text gives aa185–312; also called SMARCD2 YEATS-like SWIFT domain; source: E. coli (pGOOD), purified
Regarding B1, the Kd is 3.6 µM.
